Measured values reported in the supplement of paper PMC10567573.

B1: ZNF8 (parent)
chain: VHVIGVEEPSVGASMLFDIREST

Variants of: B1
Test: protein stability index of a GFP-peptide fusion (GPS, HEK-293T) (PSI 1-6); higher = more stable
Details: c terminus: native
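Note: lentivirally expressed fusions sorted by FACS into six bins by GFP to DsRed ratio, PSI derived from sequencing read proportions per bin multiplied by bin number.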

| Variant | protein stability index |
| --- | --- |
| VHVIGVEEPSVGASMLFDIHEST [R20H] | 2.68 |
| VHVIGVEEPSVGASMLFDIWEST [R20W] | 2.43 |
| VHVIGVEEPYVGASMLFDIREST [S10Y] | 2.02 |
| VHVIGVEEPHVGASMLFDIREST [S10H] | 2.1 |
| VHVIGVEEPFVGASMLFDIREST [S10F] | 1.26 |
| VHVIGVEEPNVGASMLFDIREST [S10N] | 2.23 |
| VHVIGVEEPPVGASMLFDIREST [S10P] | 2.03 |
| VHVIGVEEPQVGASMLFDIREST [S10Q] | 2.28 |
| VHVIGVEEPKVGASMLFDIREST [S10K] | 1.99 |
| VHVIGVEEPMVGASMLFDIREST [S10M] | 1.52 |
| VHVIGVEEPSVFASMLFDIREST [G12F] | 2.1 |
| VHVIGVEEPSVAASMLFDIREST [G12A] | 1.93 |
| VHVIGVEEPSVDASMLFDIREST [G12D] | 2.87 |
| VHVIGVEEPSVIASMLFDIREST [G12I] | 1.78 |
| VHVIGVEEPSVGISMLFDIREST [A13I] | 2.78 |
| VHVIGVEEPSVGNSMLFDIREST [A13N] | 2.31 |
| VHVIGVEEPSVGDSMLFDIREST [A13D] | 2.69 |
| VHVIGVEEPSVGSSMLFDIREST [A13S] | 1.96 |
| VHVIGVEEPSVGCSMLFDIREST [A13C] | 1.34 |
| VHVIGVEEPSVGMSMLFDIREST [A13M] | 1.57 |
| VHVIGVEEPSVGRSMLFDIREST [A13R] | 1.97 |
| VHVIGVEEPSVGFSMLFDIREST [A13F] | 2.8 |
| VHVIGVEEPSVGWSMLFDIREST [A13W] | 3.12 |
| VHVIGVEEPSVGTSMLFDIREST [A13T] | 1.93 |
| VHVIGVEEYSVGASMLFDIREST [P9Y] | 2.19 |

| Variant | protein stability index |
| --- | --- |
| VHVIGVEEMSVGASMLFDIREST [P9M] | 2.09 |
| VHVIGVEECSVGASMLFDIREST [P9C] | 1.87 |
| VHVIGVEEHSVGASMLFDIREST [P9H] | 1.74 |
| VHVIGVEEISVGASMLFDIREST [P9I] | 2.47 |
| VHVIGVEEDSVGASMLFDIREST [P9D] | 2.53 |
| VHVIGVEERSVGASMLFDIREST [P9R] | 2.27 |
| VHVIGVEEGSVGASMLFDIREST [P9G] | 2.31 |
| VHVIGVEEPSVGASALFDIREST [M15A] | 2.88 |
| VHVIGVEEPSVGASYLFDIREST [M15Y] | 2.2 |
| VHVIGVEEPSVGASGLFDIREST [M15G] | 3.15 |
| VHVIGVEEPSVGASCLFDIREST [M15C] | 2.49 |
| VHVIGVEEPSVGASLLFDIREST [M15L] | 1.74 |
| VHVIGVEEPSVGASVLFDIREST [M15V] | 1.79 |
| VHVIGVEEPSVGASELFDIREST [M15E] | 3.67 |
| VHVIGVEEPSVGASWLFDIREST [M15W] | 2.34 |
| VHVPGVEEPSVGASMLFDIREST [I4P] | 3.88 |
| VHVAGVEEPSVGASMLFDIREST [I4A] | 3.55 |
| VHVSGVEEPSVGASMLFDIREST [I4S] | 3.63 |
| VHVLGVEEPSVGASMLFDIREST [I4L] | 2.51 |
| VHVEGVEEPSVGASMLFDIREST [I4E] | 3.73 |
| VHVDGVEEPSVGASMLFDIREST [I4D] | 3.97 |
| VHVGGVEEPSVGASMLFDIREST [I4G] | 3.34 |
| VHVFGVEEPSVGASMLFDIREST [I4F] | 2.13 |
| VHVCGVEEPSVGASMLFDIREST [I4C] | 2.59 |
| VHVMGVEEPSVGASMLFDIREST [I4M] | 2.77 |

| Variant | protein stability index |
| --- | --- |
| NHVIGVEEPSVGASMLFDIREST [V1N] | 4.07 |
| YHVIGVEEPSVGASMLFDIREST [V1Y] | 2.29 |
| MHVIGVEEPSVGASMLFDIREST [V1M] | 2.29 |
| WHVIGVEEPSVGASMLFDIREST [V1W] | 2.06 |
| GHVIGVEEPSVGASMLFDIREST [V1G] | 3.85 |
| LHVIGVEEPSVGASMLFDIREST [V1L] | 1.79 |
| EHVIGVEEPSVGASMLFDIREST [V1E] | 4.18 |
| VHVIGVEEPSVGASMLFDIRESR [T23R] | 2.63 |
| VHVIGVEEPSVGASMLFDIRESN [T23N] | 2.14 |
| VHVIGVEEPSVGASMLFDIRESV [T23V] | 2.06 |
| VHVIGVEEPSVGASMLFDIRESH [T23H] | 2.45 |
| VHVIGVEEPSVGASMLFDIRESS [T23S] | 2.48 |
| VHVIGVEEPSVGASMLFDIRESY [T23Y] | 1.76 |
| VHVIGVEEPSVGASMLFDIRESQ [T23Q] | 2.09 |
| VHVIGVEEPSVGASMLFDIRESP [T23P] | 2.04 |
| VHVIGVEEPSVGASMLFDIRESA [T23A] | 2.01 |
| VHVIGVEEPSVGASMLFDIRESL [T23L] | 1.79 |
| VHVIGVEEPSVGASMWFDIREST [L16W] | 1.41 |
| VHVIGVEEPSVGASMRFDIREST [L16R] | 2.98 |
| VHVIGVEEPSVGASMAFDIREST [L16A] | 2.52 |
| VHVIGVEEPSVGASMPFDIREST [L16P] | 2.48 |
| VHVIGVEEPSVGASMMFDIREST [L16M] | 1.94 |
| VHVIGVEEPSVGASMTFDIREST [L16T] | 2.44 |
| VHVIGVEEPSVGASMEFDIREST [L16E] | 3.17 |
| VHVIGVEEPSVGASMVFDIREST [L16V] | 2 |

| Variant | protein stability index |
| --- | --- |
| VHVIGVEEPSVGASMGFDIREST [L16G] | 2.95 |
| VHVIGVEEPSVGASMDFDIREST [L16D] | 3.53 |
| VHIIGVEEPSVGASMLFDIREST [V3I] | 1.84 |
| VHWIGVEEPSVGASMLFDIREST [V3W] | 1.47 |
| VHKIGVEEPSVGASMLFDIREST [V3K] | 3.36 |
| VHEIGVEEPSVGASMLFDIREST [V3E] | 4.1 |
| VHMIGVEEPSVGASMLFDIREST [V3M] | 2.84 |
| VHYIGVEEPSVGASMLFDIREST [V3Y] | 1.54 |
| VHFIGVEEPSVGASMLFDIREST [V3F] | 1.94 |
| VHQIGVEEPSVGASMLFDIREST [V3Q] | 3.87 |
| VHTIGVEEPSVGASMLFDIREST [V3T] | 3.08 |
| VHDIGVEEPSVGASMLFDIREST [V3D] | 3.95 |
| VHVIGVEEPSVGASMLFDIRECT [S22C] | 2.52 |
| VHVIGVEEPSVGASMLFDIREHT [S22H] | 2.55 |
| VHVIGVEEPSVGASMLFDIREQT [S22Q] | 2.2 |
| VHVIGVEEPSVGASMLFDIRENT [S22N] | 3.08 |
| VHVIGVEEPSVGASMLFDIREVT [S22V] | 1.55 |
| VHVIGVEEPSVGASMLFDIREAT [S22A] | 2.38 |
| VHVIGVEEPSVGASMLFDIREMT [S22M] | 2.55 |
| VHVIGVEEPSVGASMLFDIREGT [S22G] | 1.79 |
| VHVIGVEEPSVGASMLFDIREFT [S22F] | 2.23 |
| VHVIGVEEPSVGASMLFDIREIT [S22I] | 1.69 |
